The nature of series [1]: in vivo. The following applies: male, athymic nude, mouse, total radioactivity. The procedure:
All animal procedures were approved by the University of Alabama at Birmingham IACUC, animal protocol number IACUC-22618. Male athymic nude mice (Charles River, Wilmington, MA, USA) were allowed to acclimate for at least 72 h before any procedures were performed. For tumor implantation, mice were subcutaneously injected with 300,000 HT29 cells 3 weeks before imaging. […] Mice were imaged on a GNEXT microPET/CT (Sophie, Springfield, VA, USA). After the last imaging timepoint, mice were euthanized and organs were taken for biodistribution. Organ weights and radioactive counting were collected on a Hidex gamma counter (Lablogic, Clair-Mel City, FL, USA). Images were processed and SUVs were calculated using VivoQuant software (Invicro, Boston, MA, USA).

The conditions of series [2]: endogenous peptide; cited from earlier work. The procedure: Neurotensin receptor imaging has emerged as a promising target for imaging and therapy. The endogenous neurotensin peptide has a short half-life in blood (<6 min), limiting its direct radiolabeling and use. Most developments in neurotensin receptor imaging have been focused on increasing serum stability and improving specificity for NTSR1 [1]. Previously, neurotensin receptor binding peptides have been investigated as imaging and therapeutic agents when radiolabeled with technetium-99m, indium-111, gallium-68, copper-64, actinium-225, and leutetium-177 [10, 11, 12, 13]. Specif ...

As for `CC(=O)N[C@@H](CCCCNC(=O)CN1CCN(CC(=O)O)CCN(CC(=O)O)CC1)C(=O)N1CCC[C@H]1C(=O)N(C)[C@@H](CCCNC(=N)N)C(=O)N[C@@H](CCCNC(=N)N)C(=O)N1CCC[C@H]1C(=O)N[C@@H](Cc1ccc(O)cc1)C(=O)N[C@H](C(=O)N[C@@H](CC(C)C)C(=O)O)C(C)(C)C` [[^55Co] Co-NOTA-NT-20.3], in series [1] (1 ug, heart SUV), the SUV at 1 h came out at 0.033 ± 0.002 SUV, the SUV at 4 h was 0.015 ± 0.002 SUV and the SUV at 24 h amounted to 0.004 ± 0.001 SUV.
`CC(=O)N[C@@H](CCCCNC(=O)CN1CCN(CC(=O)O)CCN(CC(=O)O)CC1)C(=O)N1CCC[C@H]1C(=O)N(C)[C@@H](CCCNC(=N)N)C(=O)N[C@@H](CCCNC(=N)N)C(=O)N1CCC[C@H]1C(=O)N[C@@H](Cc1ccc(O)cc1)C(=O)N[C@H](C(=O)N[C@@H](CC(C)C)C(=O)O)C(C)(C)C` [[^64Cu] Cu-NOTA-NT-20.3, metal not drawn]: in series [1] (liver SUV), the SUV at 1 h came out at 0.123 ± 0.029 SUV, the SUV at 4 h came to 0.178 ± 0.042 SUV and the SUV at 24 h turned out to be 0.168 ± 0.056 SUV.
For the compound “neurotensin peptide: 13-amino-acid peptide which binds to neurotensin receptors 1–3”, the half-life in blood in series [2] is on record as under 6 min.
